Seven sequences from the supplement of paper PMC10065799, “High-throughput profiling of sequence recognition by tyrosine kinases and SH2 domains using bacterial peptide display” (eLife, 2023) can be followed below.

In data set [1] the target is FGFR1 (UniProt P11362). Kind of data set: phosphorylation enrichment, bacterial display (enrichment ratio); higher = better substrate or ligand; peptides without Tyr show the background.
Data set [2] concerns the target EPHB2 (UniProt P29323). Described as above.
The target in data set [3] is Fes (UniProt P07332). The data set is described as above.
The subject of data set [4] is c-Abl (mouse). Described as above.
Data set [5] concerns the target EPHB1 (UniProt P54762). The data set is described as above.
Data set [6] concerns Fer (mouse). Described as above.
Data set [7] deals with AncSZ. The data set is described as above.
Data set [8] addresses Fyn (UniProt P06241). The description is as above.
For data set [9], the target named is MERTK (UniProt Q12866). Described as above.
MERTK, sequence (Q12866 whole entry, looked up): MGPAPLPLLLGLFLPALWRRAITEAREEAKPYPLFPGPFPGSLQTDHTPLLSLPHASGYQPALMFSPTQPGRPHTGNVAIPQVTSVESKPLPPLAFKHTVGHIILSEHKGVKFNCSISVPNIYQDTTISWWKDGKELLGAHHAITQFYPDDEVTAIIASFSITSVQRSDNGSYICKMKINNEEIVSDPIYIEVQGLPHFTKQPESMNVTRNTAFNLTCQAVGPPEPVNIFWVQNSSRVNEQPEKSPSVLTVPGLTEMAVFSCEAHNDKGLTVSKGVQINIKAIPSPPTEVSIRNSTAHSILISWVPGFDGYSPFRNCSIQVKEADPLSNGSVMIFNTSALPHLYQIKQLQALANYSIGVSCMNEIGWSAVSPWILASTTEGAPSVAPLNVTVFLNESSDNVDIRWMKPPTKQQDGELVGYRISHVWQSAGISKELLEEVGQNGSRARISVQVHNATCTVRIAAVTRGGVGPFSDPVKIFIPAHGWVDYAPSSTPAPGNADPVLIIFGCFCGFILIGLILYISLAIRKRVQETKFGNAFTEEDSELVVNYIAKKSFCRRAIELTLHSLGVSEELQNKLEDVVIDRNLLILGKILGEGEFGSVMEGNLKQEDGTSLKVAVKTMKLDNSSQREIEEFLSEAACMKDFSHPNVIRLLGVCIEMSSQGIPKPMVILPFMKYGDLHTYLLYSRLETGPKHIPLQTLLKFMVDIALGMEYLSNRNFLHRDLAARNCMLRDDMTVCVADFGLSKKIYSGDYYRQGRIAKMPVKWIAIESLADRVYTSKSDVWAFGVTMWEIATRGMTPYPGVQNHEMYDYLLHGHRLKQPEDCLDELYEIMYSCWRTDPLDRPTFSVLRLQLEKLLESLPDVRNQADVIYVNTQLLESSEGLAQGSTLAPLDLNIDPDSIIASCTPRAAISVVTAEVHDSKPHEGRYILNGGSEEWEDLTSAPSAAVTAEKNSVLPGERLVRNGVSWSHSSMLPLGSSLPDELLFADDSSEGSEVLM
The target in data set [10] is Jak2 (UniProt O60674). The description is as above.
Jak2, sequence (O60674 whole entry, looked up): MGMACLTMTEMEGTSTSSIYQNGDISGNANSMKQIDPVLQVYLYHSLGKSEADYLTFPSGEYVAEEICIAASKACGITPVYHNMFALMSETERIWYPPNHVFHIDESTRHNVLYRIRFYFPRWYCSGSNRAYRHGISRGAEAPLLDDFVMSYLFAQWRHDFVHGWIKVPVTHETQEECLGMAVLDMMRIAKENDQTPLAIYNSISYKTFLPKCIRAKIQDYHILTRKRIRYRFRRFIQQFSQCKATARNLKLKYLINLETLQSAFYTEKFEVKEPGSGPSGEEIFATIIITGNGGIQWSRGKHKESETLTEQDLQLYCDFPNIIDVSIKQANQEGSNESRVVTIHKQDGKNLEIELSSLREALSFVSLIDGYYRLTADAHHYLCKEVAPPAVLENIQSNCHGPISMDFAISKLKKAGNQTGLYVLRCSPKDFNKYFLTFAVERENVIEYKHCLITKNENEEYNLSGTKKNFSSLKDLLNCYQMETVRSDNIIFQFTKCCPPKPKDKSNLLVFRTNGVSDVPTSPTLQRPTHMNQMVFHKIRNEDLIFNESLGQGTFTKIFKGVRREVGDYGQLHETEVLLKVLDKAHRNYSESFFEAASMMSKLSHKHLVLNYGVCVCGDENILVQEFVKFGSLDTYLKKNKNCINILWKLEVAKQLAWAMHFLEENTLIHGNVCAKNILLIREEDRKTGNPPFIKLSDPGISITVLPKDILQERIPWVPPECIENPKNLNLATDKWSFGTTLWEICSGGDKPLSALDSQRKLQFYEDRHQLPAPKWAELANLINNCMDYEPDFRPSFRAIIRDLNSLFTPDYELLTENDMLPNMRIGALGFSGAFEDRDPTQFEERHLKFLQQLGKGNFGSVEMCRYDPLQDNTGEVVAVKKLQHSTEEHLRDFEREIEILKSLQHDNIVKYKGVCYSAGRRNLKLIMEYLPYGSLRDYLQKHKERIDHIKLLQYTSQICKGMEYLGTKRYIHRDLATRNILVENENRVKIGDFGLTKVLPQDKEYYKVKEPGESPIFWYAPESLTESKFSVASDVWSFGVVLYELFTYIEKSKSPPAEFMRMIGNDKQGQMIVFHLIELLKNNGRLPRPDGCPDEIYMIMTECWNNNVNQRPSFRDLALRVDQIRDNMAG
The target of data set [11] is Hck (UniProt P08631). Described as above.
Hck, sequence (P08631 whole entry, looked up): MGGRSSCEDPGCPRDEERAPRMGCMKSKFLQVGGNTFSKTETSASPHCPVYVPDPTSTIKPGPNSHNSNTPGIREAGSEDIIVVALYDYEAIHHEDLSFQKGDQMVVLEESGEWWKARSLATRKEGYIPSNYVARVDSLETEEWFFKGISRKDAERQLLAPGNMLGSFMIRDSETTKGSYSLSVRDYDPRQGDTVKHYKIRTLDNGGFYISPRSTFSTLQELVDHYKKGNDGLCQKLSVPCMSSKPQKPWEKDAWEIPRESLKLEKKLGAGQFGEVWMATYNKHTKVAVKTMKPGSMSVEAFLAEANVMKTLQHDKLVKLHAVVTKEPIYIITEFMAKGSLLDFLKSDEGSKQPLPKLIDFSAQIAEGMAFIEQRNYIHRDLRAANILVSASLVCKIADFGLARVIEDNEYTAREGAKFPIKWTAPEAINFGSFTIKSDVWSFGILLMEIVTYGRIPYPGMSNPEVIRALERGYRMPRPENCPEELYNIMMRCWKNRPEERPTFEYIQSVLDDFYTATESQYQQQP
Data set [12] addresses FGFR3 (UniProt P22607). The data set is described as above.
Data set [13] deals with c-Src. The data set is described as above.
Data set [14] has as its target Grb2 SH2 (UniProt P62993). In words: SH2 binding enrichment of the phosphorylated peptide, bacterial display (enrichment ratio); higher = better substrate or ligand; peptides without Tyr show the background.
Data set [15] addresses SHP2-C SH2. Described as above.
In data set [16] the target is c-Src SH2. The data set is described as above.
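For SH2 binding enrichment of the phosphorylated peptide, bacterial display in this document: peptide library displayed on the E. coli surface as eCPX fusions, selected cells deep-sequenced, score is each peptide's frequency after selection divided by its frequency in the input.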
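For phosphorylation enrichment, bacterial display in this document: 11-residue human phosphosite peptides and single-mutation variants displayed on the E. coli surface, counted by deep sequencing, each peptide's frequency after selection divided by its frequency in the unselected input library; frequency after pTyr selection over input frequency; kinase dosed for 20-30% of maximal phosphorylation in three min.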

Fyn, sequence (P06241 whole entry, looked up): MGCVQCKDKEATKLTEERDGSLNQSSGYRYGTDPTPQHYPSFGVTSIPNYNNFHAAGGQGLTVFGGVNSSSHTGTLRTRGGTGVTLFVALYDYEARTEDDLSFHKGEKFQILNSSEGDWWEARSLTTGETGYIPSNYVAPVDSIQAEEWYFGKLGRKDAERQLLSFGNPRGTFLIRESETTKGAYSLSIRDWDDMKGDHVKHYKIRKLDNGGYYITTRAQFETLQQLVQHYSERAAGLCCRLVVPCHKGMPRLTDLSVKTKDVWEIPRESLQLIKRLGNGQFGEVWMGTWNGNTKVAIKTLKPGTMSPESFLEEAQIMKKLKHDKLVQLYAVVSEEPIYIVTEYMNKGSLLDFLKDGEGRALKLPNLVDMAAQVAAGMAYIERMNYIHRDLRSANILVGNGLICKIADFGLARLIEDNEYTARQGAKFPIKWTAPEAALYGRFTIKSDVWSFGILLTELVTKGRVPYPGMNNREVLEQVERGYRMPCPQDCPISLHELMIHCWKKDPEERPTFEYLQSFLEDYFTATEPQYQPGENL
EPHB2, sequence (P29323 whole entry, looked up): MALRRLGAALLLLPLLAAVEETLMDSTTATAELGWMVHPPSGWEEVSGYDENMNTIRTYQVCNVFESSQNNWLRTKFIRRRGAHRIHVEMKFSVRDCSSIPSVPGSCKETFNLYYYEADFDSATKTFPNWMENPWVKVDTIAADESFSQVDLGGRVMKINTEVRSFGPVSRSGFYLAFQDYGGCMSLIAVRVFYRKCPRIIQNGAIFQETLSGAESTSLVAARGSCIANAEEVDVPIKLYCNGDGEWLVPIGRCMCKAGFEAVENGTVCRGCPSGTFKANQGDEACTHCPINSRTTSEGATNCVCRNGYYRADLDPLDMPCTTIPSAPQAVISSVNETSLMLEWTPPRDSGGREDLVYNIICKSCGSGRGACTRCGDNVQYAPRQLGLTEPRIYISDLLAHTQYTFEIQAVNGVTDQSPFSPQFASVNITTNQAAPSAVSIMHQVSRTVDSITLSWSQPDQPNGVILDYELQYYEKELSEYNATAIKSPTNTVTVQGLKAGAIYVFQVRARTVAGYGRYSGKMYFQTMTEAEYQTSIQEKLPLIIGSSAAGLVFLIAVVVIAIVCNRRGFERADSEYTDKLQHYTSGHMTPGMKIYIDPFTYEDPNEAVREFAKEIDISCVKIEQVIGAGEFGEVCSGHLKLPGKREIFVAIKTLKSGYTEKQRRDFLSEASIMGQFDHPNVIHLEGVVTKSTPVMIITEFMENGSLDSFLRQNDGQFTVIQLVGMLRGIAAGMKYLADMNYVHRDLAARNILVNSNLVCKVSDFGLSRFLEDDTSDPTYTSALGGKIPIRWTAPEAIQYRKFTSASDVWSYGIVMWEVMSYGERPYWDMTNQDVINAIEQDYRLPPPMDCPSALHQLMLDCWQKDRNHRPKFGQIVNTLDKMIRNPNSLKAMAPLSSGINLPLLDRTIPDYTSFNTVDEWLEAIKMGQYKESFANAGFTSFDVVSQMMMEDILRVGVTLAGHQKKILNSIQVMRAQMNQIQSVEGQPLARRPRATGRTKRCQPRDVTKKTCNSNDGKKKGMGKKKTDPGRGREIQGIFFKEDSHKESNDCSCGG
FGFR1, sequence (P11362 whole entry, looked up): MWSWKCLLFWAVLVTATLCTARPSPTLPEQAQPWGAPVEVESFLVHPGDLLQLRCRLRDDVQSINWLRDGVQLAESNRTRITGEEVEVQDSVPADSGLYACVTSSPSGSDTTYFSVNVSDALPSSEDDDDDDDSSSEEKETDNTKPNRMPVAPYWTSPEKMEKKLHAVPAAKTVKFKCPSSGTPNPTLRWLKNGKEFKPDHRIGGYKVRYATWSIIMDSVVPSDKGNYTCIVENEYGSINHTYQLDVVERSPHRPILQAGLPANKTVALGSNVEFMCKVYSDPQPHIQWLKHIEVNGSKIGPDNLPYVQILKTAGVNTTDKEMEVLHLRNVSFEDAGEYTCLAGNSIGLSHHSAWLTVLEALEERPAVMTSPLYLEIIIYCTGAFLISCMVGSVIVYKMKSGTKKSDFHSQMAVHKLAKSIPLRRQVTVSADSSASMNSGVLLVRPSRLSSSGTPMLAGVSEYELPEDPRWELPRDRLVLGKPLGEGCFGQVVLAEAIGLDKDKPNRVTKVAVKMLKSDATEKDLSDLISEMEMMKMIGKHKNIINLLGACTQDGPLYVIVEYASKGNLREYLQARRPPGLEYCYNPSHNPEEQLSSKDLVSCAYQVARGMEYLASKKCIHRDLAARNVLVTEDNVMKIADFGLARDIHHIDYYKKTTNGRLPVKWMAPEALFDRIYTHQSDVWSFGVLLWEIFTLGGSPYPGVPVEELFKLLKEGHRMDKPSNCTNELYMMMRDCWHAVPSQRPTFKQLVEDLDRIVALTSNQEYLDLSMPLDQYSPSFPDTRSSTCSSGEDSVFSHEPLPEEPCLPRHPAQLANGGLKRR

With FYVVRYCWLRR [MPZ_Y181], the phosphorylation enrichment amounted to 0.595 in data set [1]; 0.508 in data set [2]; 0.747 in [3]; 0.758 in data set [4]; 0.496 in data set [5]; 0.51 in data set [6]. For the same sequence, the phosphorylation enrichment in data set [7] amounted to 0.869; in data set [8] it was 0.62; in data set [9], 0.604; in data set [10] it was 0.596; in [11], 0.567; in data set [12], 0.614. Further, the phosphorylation enrichment in data set [13] worked out at 0.612. In addition, the SH2 binding enrichment in data set [14] turned out to be 0.761; in [15], 0.565; in [16], 0.545.

Turning to QQLVAYYSKHA [SRC_Y232], the phosphorylation enrichment is 0.71 in data set [1]; 0.916 in data set [2]; 1.15 in [3]; 0.934 in data set [4]; 0.765 in data set [5]; 0.559 in data set [6]. Besides, the phosphorylation enrichment in data set [7] is 1.75; in [8], 0.723; in [9], 0.944; in data set [10], 1.3; in data set [11] it was 0.781; in data set [12], 1.14. The phosphorylation enrichment in data set [13] stood at 1.02. Besides, the SH2 binding enrichment in [14] was 0.851; in data set [15], 0.632; in data set [16], 0.62.

With TEQDPSNNIVR [MMUT_Y364_Y364S], the phosphorylation enrichment stood at 0.55 in [1]; 0.46 in [2]; 1 in data set [3]; 0.768 in [4]; 0.468 in [5]; 0.408 in data set [6]. Further, the phosphorylation enrichment in data set [7] came out at 0.824; in [8], 0.492; in data set [9] it was 0.464; in data set [10], 0.771; in data set [11], 0.408; in [12], 0.557. Besides, in data set [13], the phosphorylation enrichment turned out to be 0.492. Moreover, the SH2 binding enrichment in data set [14] was 0.969; in data set [15] it was 0.863; in data set [16], 0.5.

On to DRLASYQDKVR [KRT12_Y139_L140Q], for which the phosphorylation enrichment in data set [1] came out at 0.394; in [2], 0.461; in data set [3] it was 0.68; in [4], 0.516; in [5] it was 0.411; in data set [6] it was 0.299. Also, the phosphorylation enrichment was determined as 0.532 in [7]; 0.361 in data set [8]; 0.437 in data set [9]; 0.577 in data set [10]; 0.417 in [11]; 0.539 in [12]. In addition, the phosphorylation enrichment in data set [13] came out at 0.41. Besides, the SH2 binding enrichment came to 0.786 in data set [14], 0.685 in data set [15] and 0.546 in data set [16].

Take KAESWYQTKFE [KRT75_Y342_E337K_YF]: the phosphorylation enrichment in data set [1] was 0.468; in data set [2], 0.482; in data set [3], 1.07; in data set [4], 0.839; in data set [5], 0.567; in data set [6] it was 0.594. The phosphorylation enrichment is 0.873 in [7]; 0.518 in data set [8]; 0.6 in [9]; 0.871 in [10]; 0.543 in [11]; 0.538 in data set [12]. In [13], the phosphorylation enrichment amounted to 0.662. Moreover, the results for the SH2 binding enrichment in data set [14], in [15] and in [16] were 0.915, 0.72 and 0.991, respectively.

As for QRPYVYYYSYL [PTEN_Y176_R173P], the phosphorylation enrichment in [1] was 9.79; in [2] it was 4.08; in [3], 2.35; in [4], 1.59; in data set [5] it was 4.84; in [6] it was 2. For the same sequence, the phosphorylation enrichment in data set [7] is 2.26; in [8] it was 3.38; in data set [9], 8.05; in [10], 6.45; in [11], 3.7; in [12] it was 7.23. Further, the phosphorylation enrichment in [13] is 5.34. Besides, the SH2 binding enrichment turned out to be 1.17 in [14], 1.14 in data set [15] and 0.734 in [16].

Take TEDELYQLFLQ [RASGRP2_Y378_S381F]: the phosphorylation enrichment in [1] came out at 1.37; in [2], 0.825; in data set [3] it was 1.56; in [4], 1.13; in data set [5], 1.05; in data set [6], 8.85. Moreover, the phosphorylation enrichment in [7] is 3.06; in data set [8], 4.54; in [9] it was 2.01; in data set [10], 1.3; in data set [11], 3.67; in data set [12] it was 1.9. Also, the phosphorylation enrichment in [13] is 4.23. The SH2 binding enrichment in [14] was 0.633; in [15], 0.963; in [16], 0.476.
